T1: rat KLB (+N-ter FLAG) (rat, UniProt Q99N32 53-989 (mouse entry))
T1 construct: expressed from KLB cDNA on HEK293T cells and read by FACS
T1 chain: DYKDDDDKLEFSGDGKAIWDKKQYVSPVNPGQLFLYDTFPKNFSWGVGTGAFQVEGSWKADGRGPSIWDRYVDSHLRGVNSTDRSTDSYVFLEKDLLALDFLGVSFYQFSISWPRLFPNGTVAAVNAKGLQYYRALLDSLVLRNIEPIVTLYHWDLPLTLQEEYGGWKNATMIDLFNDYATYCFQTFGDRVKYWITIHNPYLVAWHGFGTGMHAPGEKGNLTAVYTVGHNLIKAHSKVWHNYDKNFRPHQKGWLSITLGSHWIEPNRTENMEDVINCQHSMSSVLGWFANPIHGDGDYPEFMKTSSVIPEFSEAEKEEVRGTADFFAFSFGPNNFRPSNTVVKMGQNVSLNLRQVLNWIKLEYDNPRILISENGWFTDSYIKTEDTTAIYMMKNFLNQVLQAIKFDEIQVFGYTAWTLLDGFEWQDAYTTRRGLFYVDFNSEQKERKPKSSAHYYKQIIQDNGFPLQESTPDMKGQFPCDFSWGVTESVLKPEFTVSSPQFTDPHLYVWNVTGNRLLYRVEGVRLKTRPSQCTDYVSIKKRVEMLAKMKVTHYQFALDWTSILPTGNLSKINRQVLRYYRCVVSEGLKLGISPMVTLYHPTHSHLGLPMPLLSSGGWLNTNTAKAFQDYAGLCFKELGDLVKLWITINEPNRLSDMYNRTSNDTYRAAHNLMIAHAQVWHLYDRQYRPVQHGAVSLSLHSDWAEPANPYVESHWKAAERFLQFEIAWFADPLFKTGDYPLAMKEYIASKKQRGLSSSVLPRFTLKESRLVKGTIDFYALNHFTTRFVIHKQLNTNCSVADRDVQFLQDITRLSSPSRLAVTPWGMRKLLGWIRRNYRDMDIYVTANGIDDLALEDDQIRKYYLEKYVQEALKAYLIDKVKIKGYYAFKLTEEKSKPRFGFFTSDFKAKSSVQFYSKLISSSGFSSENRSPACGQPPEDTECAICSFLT

T2: cynomolgus monkey KLB (+N-ter FLAG) (cynomolgus monkey, UniProt Q86Z14 53-991 (human entry))
T2 construct: expressed from KLB cDNA on HEK293T cells and read by FACS; also called Cyno KLB
T2 chain: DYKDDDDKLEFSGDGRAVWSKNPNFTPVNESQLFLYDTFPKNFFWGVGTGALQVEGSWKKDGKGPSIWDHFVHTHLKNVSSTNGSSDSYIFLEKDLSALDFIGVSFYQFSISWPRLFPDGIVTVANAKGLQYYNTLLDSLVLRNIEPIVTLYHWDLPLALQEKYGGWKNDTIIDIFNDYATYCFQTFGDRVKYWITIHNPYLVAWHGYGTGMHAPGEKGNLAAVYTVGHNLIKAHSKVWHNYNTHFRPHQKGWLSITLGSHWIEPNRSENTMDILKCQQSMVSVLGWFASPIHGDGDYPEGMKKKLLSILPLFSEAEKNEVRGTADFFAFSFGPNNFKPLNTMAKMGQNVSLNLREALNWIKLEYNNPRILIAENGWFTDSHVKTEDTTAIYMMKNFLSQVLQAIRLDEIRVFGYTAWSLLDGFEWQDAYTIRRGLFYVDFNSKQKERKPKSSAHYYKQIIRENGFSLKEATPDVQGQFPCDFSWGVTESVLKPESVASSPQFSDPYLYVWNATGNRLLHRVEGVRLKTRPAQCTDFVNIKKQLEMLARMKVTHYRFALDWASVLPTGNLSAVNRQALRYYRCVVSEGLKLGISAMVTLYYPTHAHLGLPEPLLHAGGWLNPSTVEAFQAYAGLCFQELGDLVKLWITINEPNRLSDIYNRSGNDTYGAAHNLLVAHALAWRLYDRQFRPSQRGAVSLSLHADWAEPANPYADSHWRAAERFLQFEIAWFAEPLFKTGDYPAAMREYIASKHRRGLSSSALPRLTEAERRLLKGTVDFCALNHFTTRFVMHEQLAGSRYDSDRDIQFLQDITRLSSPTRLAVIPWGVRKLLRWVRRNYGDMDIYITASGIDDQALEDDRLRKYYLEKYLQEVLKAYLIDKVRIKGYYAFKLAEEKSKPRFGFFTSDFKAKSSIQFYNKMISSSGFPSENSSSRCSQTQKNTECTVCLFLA

T3: mouse KLB (mouse, UniProt Q99N32 53-990)
T3 construct: expressed from KLB cDNA on HEK293T cells and read by FACS; also called msKLB
T3 sequence: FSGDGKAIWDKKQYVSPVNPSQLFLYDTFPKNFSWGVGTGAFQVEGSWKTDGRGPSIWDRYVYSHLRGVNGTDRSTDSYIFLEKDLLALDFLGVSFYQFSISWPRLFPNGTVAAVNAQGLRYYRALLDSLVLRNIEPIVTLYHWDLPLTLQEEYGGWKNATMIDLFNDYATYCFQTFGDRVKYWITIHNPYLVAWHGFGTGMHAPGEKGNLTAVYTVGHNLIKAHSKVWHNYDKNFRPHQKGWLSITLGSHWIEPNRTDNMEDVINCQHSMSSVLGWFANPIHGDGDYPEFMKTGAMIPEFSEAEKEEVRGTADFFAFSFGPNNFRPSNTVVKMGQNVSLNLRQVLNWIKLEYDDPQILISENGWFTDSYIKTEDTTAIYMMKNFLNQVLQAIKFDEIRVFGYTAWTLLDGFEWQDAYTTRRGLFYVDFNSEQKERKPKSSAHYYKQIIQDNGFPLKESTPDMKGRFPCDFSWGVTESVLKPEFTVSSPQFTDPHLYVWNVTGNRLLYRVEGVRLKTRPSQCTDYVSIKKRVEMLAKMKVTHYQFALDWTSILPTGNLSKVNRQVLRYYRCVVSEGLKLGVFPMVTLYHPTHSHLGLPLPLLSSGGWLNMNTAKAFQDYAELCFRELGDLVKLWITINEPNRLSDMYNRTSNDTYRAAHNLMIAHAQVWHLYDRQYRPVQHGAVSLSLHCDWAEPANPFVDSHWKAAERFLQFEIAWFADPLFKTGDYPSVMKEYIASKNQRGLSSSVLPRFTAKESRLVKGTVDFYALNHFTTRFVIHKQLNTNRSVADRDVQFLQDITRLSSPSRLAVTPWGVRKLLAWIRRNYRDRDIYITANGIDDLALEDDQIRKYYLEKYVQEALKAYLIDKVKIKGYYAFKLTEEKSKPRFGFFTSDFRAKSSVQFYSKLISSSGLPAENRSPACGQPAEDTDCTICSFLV


Key:
Experiment in all cases: FACS on transfected HEK293T cells
rat KLB (+N-ter FLAG) = target: T1, rat KLB (+N-ter FLAG)
Method: (§1) Species cross reactivity of the disclosed anti-KLB antibodies were analyzed by FACS analysis using KLB cDNA from mouse, rat, rabbit, cynomolgus monkey and rhesus monkey cloned into pRK mammalian expression vectors transiently transfected into HEK293T cells. The KLB extracellular domain polypeptide sequences that were expressed are as follows: […]

[1] = target: T2, cynomolgus monkey KLB (+N-ter FLAG)
Method: as §1

mouse KLB = target: T3, mouse KLB
Method: as §1

binding result (rat KLB (+N-ter FLAG))	binding result [1]	binding result (mouse KLB)	Binder
no binding	binds	no binding	5F8 (antibody, V domains shown, murine hybridoma-derived anti-KLB antibody) VH: EVQLQQSGTELVRPGASVKLSCTSSDFNIKDTYIHWVKQRPEQGLDWLGRIDPANGNTKYDPKFQGKAAMTSDTSSNTAYLRLSSLTSEDTAVYYCASSGNYGAMDYWGQGTSVTVSS VL: ESVLTQSPALMSASLGEKVTMTCRASSSVNHMYWYQQKSDASPKLWIYYTSTLAPGVPARFSGSGSGNSYSLTISSMEGEDAATYYCQQFTISPSMYTFGGGTKLEIK
binds	binds	binds	24A1 (antibody, V domains shown, murine hybridoma-derived anti-KLB antibody) VH: QVQLKQSGAELVRPGTSVTLSCKASGYTFTDYEMHWMKQTPVYGLEWIGAIWPENADSVYNQKFKGKVTLTADKSSSTAYMDLRSLTSEDSAVYYCTREGGNYWGQGTTLTVSS VL: not shown
no binding	binds		8H7 (antibody, V domains shown, murine hybridoma-derived anti-KLB antibody) VH: QVQLQQPGAEIVKPGASVRLSCKASGYSFTSYWIHWVKQRPGQGLEWIGEIDPSVSNSNYNQKFKGKATLTADKSSSTAYMQLSGLTSEDSAVYFCVRLGVMVYGSSPFWFAYWGQGTLVTVSA VL: DIVMTQSQKFMSTSVGDRVSITCKASQFVSDAVAWYQQKPGQSPKLLICSASYRYTGVPDRFTGSGSGTDFTFTISSVRTEDLAVYYCQQHYIVPYTFGGGTTLEIE
no binding	binds		21H3 (antibody, V domains shown, murine hybridoma-derived anti-KLB antibody) VH: QVQLQQPGAEIVKPGASVRLSCKASGYSFTSYWIHWVKQRPGQGLEWIGEIDPSVSNSNYNQKFKGKATLTADKSSSTAYMQLSGLTSEDSAVYFCVRLGVMVYGSSPFWFAYWGQGTLVTVSA VL: DIVMTQSQKFMSTSVGDRVSITCKASQFVSDAVAWYQQKPGQSPKLLICSASYRYTGVPDRFTGSGSGTDFTFTISSVRTEDLAVYYCQQHYIVPYTFGGGTTLEIE
no binding	binds		12A11 (antibody, V domains shown, murine hybridoma-derived anti-KLB antibody; also called KLBmAb2) VH: EVKFLESGGGLVQPGGSLRLSCAVSGIDFSRYWMSWVRQAPGKGLEWIGEISPDSSTINYTPSLKDKFVISRDNAKNTLYLQMSKVRSADTALYYCARPSPALDYWGQGTLVTVSA VL: DIVMTQSPATLSVTPGDRVSLSCRASQSISDYVYWYQQKSHESPRLLIIYASQSISGIPSRFSGSGSGSDFTLSINSVEPEDVGVYYCQNGHNFPYTFGGGTKLEIK
no binding	binds	no binding	12B8 (antibody, V domains shown, murine hybridoma-derived anti-KLB antibody) VH: QIQLVQSGPELKKPGETAKISCKASGYAFSNYGMNWVKQAPGKDLKWMGWIDTDTGEATYTDDFKGRFVFSLETSASTAYLQINNLKNEDMATYFCAREEYGLFGFPYWGHGTLVTVSA VL: DIQMTQSSSSFSVSLGDRVTITCKASEDIYNRLAWYQQKPGSAPRLLISAATSLETGVPSRFSGSGSGKDYTLSITSLQTEDVATYYCQQYWSNPLTFGAGTKLEIK
no binding	binds	no binding	8E1 (antibody, V domains shown, murine hybridoma-derived anti-KLB antibody) VH: EVQLQQSGAELVKPGASVKLSCTAADFNIKDTYMHWVKQRPEQGLEWIGRIDPSNGNAKYDPKFQGKASITADSSSNTAYLHLSSLTSEDTAVYYCASRALGNGYALGYWGQGTSVTVSS VL: DIQMTQSSSYLSVSLGGSVTITCKASDHINNWLAWYQQKPGNAPRLLIYGTTNLETGVPSRFSGSGSGRDYILSITSLQSEDVASYYCQQYWNTPFTFGSGTKLEIK
no binding	binds	no binding	25F7 (antibody, V domains shown, murine hybridoma-derived anti-KLB antibody) VH: EVQLQQSGAELLKPGASVRLSCTASGFNIQDTFTHWVRQRPEQGLEWIGRIDPSNGNTKYDPKFQGKAKILADTSSNTAYLQLIGLTSEDTAVYYCASRALGNGYAMDYWGQGTSVTVSS VL: DIQMTQSSSYLSVSLGGRVTITCKASDHINNWLAWYQQKPGNAPRLLISGASNLETGIPSRFSGSGSGKDYTLTITSLQTEDVATYYCQQYWNTPFTFGSGTKLEIK
binds	binds	binds	14C6 (antibody, V domains shown, murine hybridoma-derived anti-KLB antibody) VH: QIQLQQSGAELMKPGASVRMSCKASGYTFSSYWIEWVKQRSGHGLEWIGEIFPGGGSTIYNENFRDKATFTADTSSNTAYMQLSSLTSEDSAVYFCARRGYYDAAWFDYWGQGTLVTVSA VL: QIVLTQSPAIMSASPGERVTLTCSASSSLSSSYLYWYQQKPGSSPKLWIYGASNLASGVPGRFSGSGSGTSYSLTISSMEAEDAASYFCHQWSSYPLTFGSGTKLELK
binds	binds	binds	8C5 (antibody, V domains shown, murine hybridoma-derived anti-KLB antibody; also called KLBmAb1) VH: QVQLKQSGPGLVQPSQSLSVACTVSDFSLTTYGVHWVRQSPGKGLEWLGVIWSGGSTDYNAAFISRLTISKDNSKSQVFFKMNSLQTTDTAIYYCARDYGSTYVDAIDYWGQGTSVTVSS VL: DIVLTQSPTSLAVSLGQRATISCRASESVESYGNRYMTWYQQKPGQPPKLLIYRAANLQSGIPARFSGSGSRTDFTLTIDPVEADDVATYYCQQSNEDPWTFGGGTKVEIK
